According to patent US20240240234:

Experiments:
[1] = system: EcoGII adenine methyltransferase; details: methylation efficiency by DpnII protection; SAM; 0.1% BSA improves
[2] = system: Hia5 adenine methyltransferase; details: methylation efficiency by DpnII protection; SAM; 0.1% BSA improves
[3] = system: LMNB1 (Lamin B1) (Homo sapiens); details: DiMeLo-seq pA-Hia5 in situ, signal:background mA ratio (IgG control 1.6)

Substance | activity [1] [%] | activity [2] [%] | binding signal [3]
90-bp duplex with single GATC | 100 | 100 | –
constitutive lamina-associated domains (cLADs) | – | – | 34.3
